The values below come from patent US5262522, “Receptor for oncostatin M and leukemia inhibitory factor” (Immunex Corporation, dated 1993).

In general, Kd refers to the free concentration of one partner at which half of the binding sites on the other are occupied at equilibrium, for simple one-to-one binding.

Sequences and labels used below:
B1: Receptor comprising gp130 (B10G) and LIF-R (pHLIFR-65) co-expressed on COS-7 cells (receptor)
chain 1: ELLDPCGYISPESPVVQLHSNFTAVCVLKEKCMDYFHVNANYIVWKTNHFTIPKEQYTIINRTASSVTFTDIASLNIQLTCNILTFGQLEQNVYGITIISGLPPEKPKNLSCIVNEGKKMRCEWDGGRETHLETNFTLKSEWATHKFADCKAKRDTPTSCTVDYSTVYFVNIEVWVEAENALGKVTSDHINFDPVYKVKPNPPHNLSVINSEELSSILKLTWTNPSIKSVIILKYNIQYRTKDASTWSQIPPEDTASTRSSFTVQDLKPFTEYVFRIRCMKEDGKGYWSDWSEEASGITYEDRPSKAPSFWYKIDPSHTQGYRTVQLVWKTLPPFEANGKILDYEVTLTRWKSHLQNYTVNATKLTVNLTNDRYLATLTVRNLVGKSDAAVLTIPACDFQATHPVMDLKAFPKDNMLWVEWTTPRESVKKYILEWCVLSDKAPCITDWQQEDGTVHRTYLRGNLAESKCYLITVTPVYADGPGSPESIKAYLKQAPPSKGPTVRTKKVGKNEAVLEWDQLPVDVQNGFIRNYTIFYRTIIGNETAVNVDSSHTEYTLSSLTSDTLYMVRMAAYTDEGGKDGPEFTFTTPKFAQGEIEAIVVPVCLAFLLTTLLGVLFCFNKRDLIKKHIWPNVPDPSKSHIAQWSPHTPPRHNFNSKDQMYSDGNFTDVSVVEIEANDKKPFPEDL
chain 2: QKKGAPHDLKCVTNNLQVWNCSWKAPSGTGRGTDYEVCIENRSRSCYQLEKTSIKIPALSHGDYEITINSLHDFGSSTSKFTLNEQNVSLIPDTPEILNLSADFSTSTLYLKWNDRGSVFPHRSNVIWEIKVLRKESMELVKLVTHNTTLNGKDTLHHWSWASDMPLECAIHFVEIRCYIDNLHFSGLEEWSDWSPVKNISWIPDSQTKVFPQDKVILVGSDITFCCVSQEKVLSALIGHTNCPLIHLDGENVAIKIRNISVSASSGTNVVFTTEDNIFGTVIFAGYPPDTPQQLNCETHDLKEIICSWNPGRVTALVGPRATSYTLVESFSGKYVRLKRAEAPTNESYQLLFQMLPNQEIYNFTLNAHNPLGRSQSTILVNITEKVYPHTPTSFKVKDINSTAVKLSWHLPGNFAKINFLCEIEIKKSNSVQEQRNVTIKGVENSSYLVALDKLNPYTLYTFRIRCSTETFWKWSKWSNKKQHLTTEASPSKGPDTWREWSSDGKNLIIYWKPLPINEANGKILSYNVSCSSDEETQSLSEIPDPQHKAEIRLDKNDYIISVVAKNSVGSSPPSKIASMEIPNDDLKIEQVVGMGKGILLTWHYDPNMTCDYVIKWCNSSRSEPCLMDWRKVPSNSTETVIESDEFRPGIRYNFFLYGCRNQGYQLLRSMIGYIEELAPIVAPNFTVEDTSADSILVKWEDIPVEELRGFLRGYLFYFGKGERDTSKMRVLESGRSDIKVKNITDISQKTLRIADLQGKTSYHLVLRAYTDGGVGPEKSMYVVTKENSVGLIIAILIPVAVAVIVGVVTSILCYRKREWIKETFYPDIPNPENCKALQFQKSVCEGSSALKTLEMNPCTPNNVEVLETRSAFPKIEDTEIISPVAERPEDRSDAEPENHVVVSYCPPIIEEEIPNPAADEAGGTAQVIYIDVQSMYQPQAKPEEKKKKSRSSRSKI
B4: Recombinant human leukemia inhibitory factor (LIF) (ligand)
chain: not shown
modifications: radioiodinated (125I) where used as the labelled ligand; non-radiolabeled where used as competitor

The target of test [1] is B4. The test is described as follows: Scatchard analysis of 125I-LIF binding to COS-7 cells co-transfected with B10G and pHLIFR-65 (curve A), phthalate oil separation. The method, then:
(§1) Host cells transfected with vector(s) encoding LIF-R or gp130 as described below were assayed for the ability to bind LIF. The host cells were the monkey kidney cell line designated COS-7, described by Glutzman, *Cell* 23:175 (1981). In separate transfections, COS-7 cells were transfected with the following combinations of vectors. The different types of transfected cells (and non-transfected control cells) are designated A–F as shown below, and the curves representing the LIF-binding assay data for each transfected or control cell type are also labeled A–F in FIG. 1.
(§2) Briefly, the COS-7 host cells were released from 10 cm tissue culture plates two days after transfection by incubation in non-enzymatic cell dissociation buffer (Sigma) at 37° C. for 30–60 minutes. Cells were then washed with the above-described binding medium and resuspended in binding medium at 5 ×10^6 cells/ml. 50 μl aliquots of the cells were incubated with serial dilutions of ^125I-LIF at room temperature for one hour with agitation (in the presence or absence of a 200-fold excess of unlabeled LIF) in a total volume of 150 μl. The unlabeled LIF allowed for calculation of the non-specific background binding of LIF. […]

In test [2] the target is B4. The test is described as follows: Scatchard analysis of 125I-LIF binding to COS-7 cells transfected with pHLIFR-65 and CAV (curve B, site 2), phthalate oil separation. As for the experimental part: as §1, §2
Test [3] has as its target B4. In words: 125I-LIF binding to COS-7 cells transfected with B10G and CAV (curve F against curve E), phthalate oil separation, Scatchard. As for the experimental part: as §1, §2
The target in test [4] is B1. In words: Scatchard analysis of 125I-LIF binding to co-transfected COS-7 cells preincubated with oncostatin M as competitor (curve C). The method, then: as §1, §2

Regarding B1, the equilibrium dissociation constant (Kd) in test [1] amounted to 0.9 nM.

B2: Single-polypeptide chain human LIF-R encoded by pHLIFR-65, expressed on COS-7 cells (receptor)
chain: QKKGAPHDLKCVTNNLQVWNCSWKAPSGTGRGTDYEVCIENRSRSCYQLEKTSIKIPALSHGDYEITINSLHDFGSSTSKFTLNEQNVSLIPDTPEILNLSADFSTSTLYLKWNDRGSVFPHRSNVIWEIKVLRKESMELVKLVTHNTTLNGKDTLHHWSWASDMPLECAIHFVEIRCYIDNLHFSGLEEWSDWSPVKNISWIPDSQTKVFPQDKVILVGSDITFCCVSQEKVLSALIGHTNCPLIHLDGENVAIKIRNISVSASSGTNVVFTTEDNIFGTVIFAGYPPDTPQQLNCETHDLKEIICSWNPGRVTALVGPRATSYTLVESFSGKYVRLKRAEAPTNESYQLLFQMLPNQEIYNFTLNAHNPLGRSQSTILVNITEKVYPHTPTSFKVKDINSTAVKLSWHLPGNFAKINFLCEIEIKKSNSVQEQRNVTIKGVENSSYLVALDKLNPYTLYTFRIRCSTETFWKWSKWSNKKQHLTTEASPSKGPDTWREWSSDGKNLIIYWKPLPINEANGKILSYNVSCSSDEETQSLSEIPDPQHKAEIRLDKNDYIISVVAKNSVGSSPPSKIASMEIPNDDLKIEQVVGMGKGILLTWHYDPNMTCDYVIKWCNSSRSEPCLMDWRKVPSNSTETVIESDEFRPGIRYNFFLYGCRNQGYQLLRSMIGYIEELAPIVAPNFTVEDTSADSILVKWEDIPVEELRGFLRGYLFYFGKGERDTSKMRVLESGRSDIKVKNITDISQKTLRIADLQGKTSYHLVLRAYTDGGVGPEKSMYVVTKENSVGLIIAILIPVAVAVIVGVVTSILCYRKREWIKETFYPDIPNPENCKALQFQKSVCEGSSALKTLEMNPCTPNNVEVLETRSAFPKIEDTEIISPVAERPEDRSDAEPENHVVVSYCPPIIEEEIPNPAADEAGGTAQVIYIDVQSMYQPQAKPEEKKKKSRSSRSKI
Take B2: the dissociation constant (Kd) in test [2] worked out at 2.4 nM.

B3: Human gp130 encoded by plasmid B10G, expressed on COS-7 cells (receptor)
chain: ELLDPCGYISPESPVVQLHSNFTAVCVLKEKCMDYFHVNANYIVWKTNHFTIPKEQYTIINRTASSVTFTDIASLNIQLTCNILTFGQLEQNVYGITIISGLPPEKPKNLSCIVNEGKKMRCEWDGGRETHLETNFTLKSEWATHKFADCKAKRDTPTSCTVDYSTVYFVNIEVWVEAENALGKVTSDHINFDPVYKVKPNPPHNLSVINSEELSSILKLTWTNPSIKSVIILKYNIQYRTKDASTWSQIPPEDTASTRSSFTVQDLKPFTEYVFRIRCMKEDGKGYWSDWSEEASGITYEDRPSKAPSFWYKIDPSHTQGYRTVQLVWKTLPPFEANGKILDYEVTLTRWKSHLQNYTVNATKLTVNLTNDRYLATLTVRNLVGKSDAAVLTIPACDFQATHPVMDLKAFPKDNMLWVEWTTPRESVKKYILEWCVLSDKAPCITDWQQEDGTVHRTYLRGNLAESKCYLITVTPVYADGPGSPESIKAYLKQAPPSKGPTVRTKKVGKNEAVLEWDQLPVDVQNGFIRNYTIFYRTIIGNETAVNVDSSHTEYTLSSLTSDTLYMVRMAAYTDEGGKDGPEFTFTTPKFAQGEIEAIVVPVCLAFLLTTLLGVLFCFNKRDLIKKHIWPNVPDPSKSHIAQWSPHTPPRHNFNSKDQMYSDGNFTDVSVVEIEANDKKPFPEDL
For the molecule B3, the binding result in test [3] was “no binding”.
As to B4, the “KD after preincubation of the cells with non-radiolabeled oncostatin M” value in test [4] was 4.2 nM.
